The values below come from patent publication US20040059519A1.

In test [1] the target is Neutravidin (deglycosylated avidin) (UniProt P02701). The test can be described thus: multiplex, Neutravidin bead 40/40 without peptide, flow cytometry.
For test [2] the target is unchanged. Kind of test: multiplex, Neutravidin bead 70/40 without peptide, flow cytometry.
The target is the same in test [3]. Kind of test: multiplex, Neutravidin bead 70/70 without peptide, flow cytometry.
For test [4] the target is unchanged. Kind of test: single-analyte, Neutravidin bead 40/40 without peptide, flow cytometry.
Test [5] shares this target. Kind of test: single-analyte, Neutravidin bead 40/50 without peptide, flow cytometry.
For test [6] the target is unchanged. Kind of test: single-analyte, Neutravidin bead 60/70 without peptide, flow cytometry.
For test [7] the target is unchanged. Kind of test: single-analyte, Neutravidin bead 70/50 without peptide, flow cytometry.
In test [8] the target is Alpha fetoprotein (UniProt P02771). Kind of test: multiplex sandwich, S10473 capture beads; AFP 0 ng/mL, no wash.
Chain of UniProt P02771 (P02771 19-609 limits assumed): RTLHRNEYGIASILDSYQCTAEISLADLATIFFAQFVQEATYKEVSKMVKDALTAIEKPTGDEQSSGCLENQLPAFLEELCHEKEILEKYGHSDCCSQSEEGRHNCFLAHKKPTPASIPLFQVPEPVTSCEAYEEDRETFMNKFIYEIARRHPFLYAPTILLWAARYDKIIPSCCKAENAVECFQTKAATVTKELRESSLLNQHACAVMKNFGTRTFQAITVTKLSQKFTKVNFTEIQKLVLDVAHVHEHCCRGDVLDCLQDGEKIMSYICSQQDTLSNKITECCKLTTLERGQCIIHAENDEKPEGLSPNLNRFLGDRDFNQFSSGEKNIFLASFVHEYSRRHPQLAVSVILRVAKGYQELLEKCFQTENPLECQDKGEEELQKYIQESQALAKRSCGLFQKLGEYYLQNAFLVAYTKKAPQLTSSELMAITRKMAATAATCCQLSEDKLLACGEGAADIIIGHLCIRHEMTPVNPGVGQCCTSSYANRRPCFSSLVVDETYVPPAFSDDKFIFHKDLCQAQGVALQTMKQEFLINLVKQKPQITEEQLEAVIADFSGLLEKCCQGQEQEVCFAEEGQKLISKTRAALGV
For test [9] the target is unchanged. The test can be described thus: multiplex sandwich, S10473 capture beads; AFP 1 ng/mL, no wash.
Test [10] has the same target. Kind of test: multiplex sandwich, S10473 capture beads; AFP 31 ng/mL, washed.
Test [11] has the same target. Kind of test: multiplex sandwich, S10473 capture beads; AFP 125 ng/mL, washed.
Test [12] shares this target. The test can be described thus: multiplex sandwich, S10473 capture beads; AFP 16 ng/mL, no wash.
Test [13] has the same target. Kind of test: multiplex sandwich, S10473 capture beads; AFP 500 ng/mL, washed.
For test [14] the target is unchanged. Kind of test: multiplex sandwich, S10473 capture beads; AFP 62 ng/mL, no wash.
The target is the same in test [15]. The test can be described thus: multiplex sandwich, S10473 capture beads; AFP 125 ng/mL, no wash.
Test [16] shares this target. Kind of test: multiplex sandwich, S10473 capture beads; AFP 0.25 ng/mL, no wash.
Test [17] addresses Human chorionic gonadotropin (human) (UniProt P01215). Kind of test: MAB602 capture beads, flow cytometry; hCG 0.0 ng/mL, anti-AFP probe.
Chain of UniProt P01215 (P01215 25-116, chain 1 of 2, other chains not shown): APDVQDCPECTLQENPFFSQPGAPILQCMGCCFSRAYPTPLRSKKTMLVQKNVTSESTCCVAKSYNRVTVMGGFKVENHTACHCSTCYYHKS
Test [18] has the same target. Kind of test: MAB602 capture beads, flow cytometry; hCG 1.0 ng/mL, anti-AFP probe.
In test [19] the target is Alpha fetoprotein (UniProt P02771). Kind of test: anti-AFP capture beads, flow cytometry; AFP 0.0 ng/mL, anti-AFP probe.
In test [20] the target is Human chorionic gonadotropin (human) (UniProt P01215). Kind of test: MAB602 capture beads, flow cytometry; hCG 1000.0 ng/mL, anti-AFP probe.
The target is the same in test [21]. The test can be described thus: anti-AFP capture beads, flow cytometry; hCG 10.0 ng/mL, anti-AFP probe.
The target in test [22] is Alpha fetoprotein (UniProt P02771). Kind of test: multiplex no-wash sandwich, S10473 beads; serum Level 2, AFP 53.8 U/mL.
Test [23] addresses Human chorionic gonadotropin (human) (UniProt P01215). Kind of test: anti-AFP capture beads, flow cytometry; hCG 100.0 ng/mL, anti-AFP probe.
The target of test [24] is Alpha fetoprotein (UniProt P02771). Kind of test: multiplex no-wash sandwich, S10473 beads; serum Level 3D, AFP 111.5 U/mL.
The target in test [25] is Human chorionic gonadotropin (human) (UniProt P01215). Kind of test: sandwich, MAB602 capture beads, flow cytometry; hCG 0 ng/mL.
The target is the same in test [26]. Kind of test: sandwich, MAB602 capture beads, flow cytometry; hCG 0.2 ng/mL.
For test [27] the target is unchanged. Kind of test: sandwich, MAB602 capture beads, flow cytometry; hCG 200 ng/mL.
Test [28] has the same target. Kind of test: multiplex sandwich, MAB602 capture beads; hCG 1 ng/mL, washed.
For test [29] the target is unchanged. The test can be described thus: multiplex sandwich, MAB602 capture beads; hCG 4 ng/mL, no wash.
Test [30] shares this target. Kind of test: multiplex sandwich, MAB602 capture beads; hCG 0.5 ng/mL, washed.
Test [31] has the same target. Kind of test: multiplex sandwich, MAB602 capture beads; hCG 125 ng/mL, washed.
Test [32] concerns the target Alpha fetoprotein (UniProt P02771). The test can be described thus: MAB602 capture beads, flow cytometry; AFP 1.0 ng/mL, anti-hCG probe.
Test [33] deals with Human chorionic gonadotropin (human) (UniProt P01215). The test can be described thus: MAB602 capture beads, flow cytometry; hCG 0.0 ng/mL, anti-hCG probe.
Test [34] has the same target. Kind of test: MAB602 capture beads, flow cytometry; hCG 0.1 ng/mL, anti-hCG probe.
Test [35] concerns the target Alpha fetoprotein (UniProt P02771). The test can be described thus: anti-AFP capture beads, flow cytometry; AFP 1.0 ng/mL, anti-hCG probe.
Test [36] has as its target Human chorionic gonadotropin (human) (UniProt P01215). Kind of test: multiplex no-wash sandwich, MAB602 beads; serum Level 3, hCG 436 mU/mL.
Test [37] has the same target. The test can be described thus: multiplex no-wash sandwich, MAB602 beads; serum Level 1, hCG 22.8 mU/mL.
For test [38] the target is unchanged. The test can be described thus: multiplex no-wash sandwich, MAB602 beads; serum Level 2, hCG 26.4 mU/mL.
Test [39] concerns the target Alpha fetoprotein (UniProt P02771). The test can be described thus: anti-AFP capture beads, flow cytometry; AFP 1000.0 ng/mL, anti-hCG probe.

“And” between values parts separate entries of the source, which are not always exact repeats. Equal values may be shown once.

Chain of UniProt P02701 (P02701 25-152 limits assumed): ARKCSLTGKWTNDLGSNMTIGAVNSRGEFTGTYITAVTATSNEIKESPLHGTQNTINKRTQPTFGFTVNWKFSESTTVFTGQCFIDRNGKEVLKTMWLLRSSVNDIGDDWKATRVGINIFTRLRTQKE

For MAB 384, Bodipy FL-X labeled (antibody), the MIF of Fm in test [1] is 25; in test [2], 21; in test [3], 25; in [4] it was 44; in test [5] it was 47; in [6] it was 48. Further, the MIF of Fm in test [7] amounted to 66.
With “M20077 affinity purified polyclonal anti-AFP antibody, Bodipy FL-CASE labeled”, the MIF of Fm worked out at 15 in the test with Alpha fetoprotein [8]; 33 in the test with Alpha fetoprotein [9]; 612 in the test with Alpha fetoprotein [10]; 1050 with Alpha fetoprotein [11]; 359 in the test with Alpha fetoprotein [12]; 1380 with Alpha fetoprotein [13]. Moreover, the MIF of Fm came to 980 in the test with Alpha fetoprotein [14]; 1060 in the test with Alpha fetoprotein [15]; 17 with Alpha fetoprotein [16]; 72 in test [17]; 48 in test [18]; 45 in the test with Alpha fetoprotein [19]. Moreover, the MIF of Fm in test [20] was 47; in [21], 45; in [23] it was 44. Further, the MIF AVG came to 363 with Alpha fetoprotein [22] and 552 with Alpha fetoprotein [24]. In addition, the MIF of FL1 with Alpha fetoprotein [22] was 351 and 365 and 372; with Alpha fetoprotein [24] it was 535 and 562 and 559.
With “AB633 affinity purified polyclonal anti-hCG antibody, Bodipy FL-CASE labeled”, the MIF of Fm in test [25] was 128 and 111; in test [26] it was 258 and 254; in [27], 9230 and 9400; in test [28], 359; in test [29], 1120; in [30], 175. Also, the MIF of Fm in [31] was found to be 2950; in the test with Alpha fetoprotein [32] it was 47; in test [33], 48; in test [34], 55; in the test with Alpha fetoprotein [35], 50; with Alpha fetoprotein [39], 57. The values for the MIF AVG in test [36], in test [37] and in test [38] were 624, 25.7 and 31.7, respectively. The MIF of FL1 in test [36] was 631 and 601 and 640; in test [37], 23 and 27; in test [38], 32 and 34 and 29.
